Results reported in patent US20070032406A1 (UNIVERSITY OF ROCHESTER, published 2007).
Each block holds one molecule with its values, some of them ahead of it.

What was measured:
[1] = biological target: NgR2 (full-length, N-terminally myc-tagged rat NgR2) (rat) (UniProt Q80WD1); experiment: MAG-Fc binding to transfected COS-7 cells, direct comparison with NgR
[2] = biological target: NgR2 (full-length, N-terminally myc-tagged rat NgR2) (rat) (UniProt Q80WD1); experiment: MAG-Fc binding to NgR2 expressing COS-7 cells
[3] = biological target: NgR2 (full-length, N-terminally myc-tagged rat NgR2) (rat) (UniProt Q80WD1); experiment: estimated from the 5 fold comparison on COS-7 cells and the literature Kd of MAG-Fc/NgR
[4] = biological target: NgR2 (full-length, N-terminally myc-tagged rat NgR2) (rat) (UniProt Q80WD1); experiment: Scatchard plot analysis, MAG-Fc on NgR2 expressing COS-7 cells
[5] = biological target: T1, NgR3 (full-length, N-terminally myc-tagged rat NgR3) (rat, UniProt Q80WD0 24-424); experiment: AP-ligand binding to transfected COS-7 cells
T1 construct: also called myc-NgR3[Gly24-Arg445]
T1 sequence: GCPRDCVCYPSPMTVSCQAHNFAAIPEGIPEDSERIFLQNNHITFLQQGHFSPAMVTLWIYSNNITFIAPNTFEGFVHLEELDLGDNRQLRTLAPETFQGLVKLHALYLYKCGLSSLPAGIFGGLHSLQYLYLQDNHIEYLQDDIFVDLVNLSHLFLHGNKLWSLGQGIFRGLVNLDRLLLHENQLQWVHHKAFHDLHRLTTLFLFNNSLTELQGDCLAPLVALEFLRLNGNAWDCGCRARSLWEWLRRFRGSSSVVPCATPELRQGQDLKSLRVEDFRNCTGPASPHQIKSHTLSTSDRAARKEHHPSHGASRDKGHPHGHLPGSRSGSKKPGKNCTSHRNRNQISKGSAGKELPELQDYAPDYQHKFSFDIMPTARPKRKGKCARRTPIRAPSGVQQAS

[6] = biological target: T2, NgR1 (Nogo receptor; full-length, N-terminally myc-tagged rat NgR) (rat, UniProt Q99M75 26-447); experiment: AP-ligand binding to transfected COS-7 cells
T2 construct: GPI-linked; Expressed on COS-7 cells, in HEK293T cells (co-IP) and by adenovirus in rat DRG neurons; the tag is stated only for the COS-7 construct; also called myc-NgR[Pro26-Cys473]
T2 sequence: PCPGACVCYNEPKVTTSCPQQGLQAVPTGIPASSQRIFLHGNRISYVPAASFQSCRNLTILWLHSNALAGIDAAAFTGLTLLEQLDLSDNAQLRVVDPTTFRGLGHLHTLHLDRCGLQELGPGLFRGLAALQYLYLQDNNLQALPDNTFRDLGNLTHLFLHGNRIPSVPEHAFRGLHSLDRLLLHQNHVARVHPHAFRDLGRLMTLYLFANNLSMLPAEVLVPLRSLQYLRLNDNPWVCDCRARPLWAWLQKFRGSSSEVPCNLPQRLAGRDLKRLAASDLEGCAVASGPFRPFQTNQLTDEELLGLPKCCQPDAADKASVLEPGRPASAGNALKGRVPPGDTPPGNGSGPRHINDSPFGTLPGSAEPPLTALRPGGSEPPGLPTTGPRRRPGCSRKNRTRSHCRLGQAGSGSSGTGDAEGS

[7] = biological target: T3, NgR2 (full-length, N-terminally myc-tagged rat NgR2) (rat, UniProt Q80WD1 30-390); experiment: AP-ligand binding to transfected COS-7 cells
T3 construct: also called myc-NgR2[Ser30-Leu420]
T3 sequence: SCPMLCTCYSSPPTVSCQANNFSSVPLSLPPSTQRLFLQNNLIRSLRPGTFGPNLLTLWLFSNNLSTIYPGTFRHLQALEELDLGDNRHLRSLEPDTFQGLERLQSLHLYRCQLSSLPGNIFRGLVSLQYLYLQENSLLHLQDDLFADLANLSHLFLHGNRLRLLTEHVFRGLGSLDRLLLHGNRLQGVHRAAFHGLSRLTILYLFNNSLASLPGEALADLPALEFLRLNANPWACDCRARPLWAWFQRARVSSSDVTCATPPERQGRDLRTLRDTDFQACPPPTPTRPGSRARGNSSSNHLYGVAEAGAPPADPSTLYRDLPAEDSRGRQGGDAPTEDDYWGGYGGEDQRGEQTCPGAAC

Molecule: MAG-Fc (MAG ectodomain fused to the Fc fragment of human immunoglobulin) (Fc fusion)
fold tighter binding than to NgR [1]: 5 fold
concentration at which binding saturates [2]: 5 to 10 nM
Kd [3]: 1 to 2 nM
Kd [4]: 2 nM

binding result [5]: no binding
binding result [6]: no binding
binding result [7]: no binding
B1: AP-sNgR^C-term (LRRCT domain together with the unique domain of NgR, residues 261-445, AP fusion) (receptor)
chain: PWVCDCRARPLWAWLQKFRGSSSEVPCNLPQRLAGRDLKRLAASDLEGCAVASGPFRPFQTNQLTDEELLGLPKCCQPDAADKASVLEPGRPASAGNALKGRVPPGDTPPGNGSGPRHINDSPFGTLPGSAEPPLTALRPGGSEPPGLPTTGPRRRPGCSRKNRTRSHCRLGQAGSGSSGTGDAE
notes: Soluble, made in HEK293T cells; also called AP-sNgRCTu [Pro261-Glu445]; AP-NgR^C-term; not shown: alkaline phosphatase (AP) tag
